The results in this text go back to paper PMC5859130, “Ixonnexin from Tick Saliva Promotes Fibrinolysis by Interacting with Plasminogen and Tissue-Type Plasminogen Activator, and Prevents Arterial Thrombosis” (Scientific Reports, 2018).

Data set [1] deals with the molecule itself. Put plainly: SEC; Superdex 75 10/300, 20 mM Tris-HCl, 0.15 M NaCl, pH 8, 0.5 mL/min; column calibrated with salivary proteins of known mass.
A further data set concerns the target Factor Xa. Put plainly: cell-based or functional assay.
In another data set the target is T1, Lys-plasminogen (UniProt P00747 97-810).
T1 construct: source: bought: Enzyme Research Laboratories or Innovative Research
T1 sequence (P00747 97-810): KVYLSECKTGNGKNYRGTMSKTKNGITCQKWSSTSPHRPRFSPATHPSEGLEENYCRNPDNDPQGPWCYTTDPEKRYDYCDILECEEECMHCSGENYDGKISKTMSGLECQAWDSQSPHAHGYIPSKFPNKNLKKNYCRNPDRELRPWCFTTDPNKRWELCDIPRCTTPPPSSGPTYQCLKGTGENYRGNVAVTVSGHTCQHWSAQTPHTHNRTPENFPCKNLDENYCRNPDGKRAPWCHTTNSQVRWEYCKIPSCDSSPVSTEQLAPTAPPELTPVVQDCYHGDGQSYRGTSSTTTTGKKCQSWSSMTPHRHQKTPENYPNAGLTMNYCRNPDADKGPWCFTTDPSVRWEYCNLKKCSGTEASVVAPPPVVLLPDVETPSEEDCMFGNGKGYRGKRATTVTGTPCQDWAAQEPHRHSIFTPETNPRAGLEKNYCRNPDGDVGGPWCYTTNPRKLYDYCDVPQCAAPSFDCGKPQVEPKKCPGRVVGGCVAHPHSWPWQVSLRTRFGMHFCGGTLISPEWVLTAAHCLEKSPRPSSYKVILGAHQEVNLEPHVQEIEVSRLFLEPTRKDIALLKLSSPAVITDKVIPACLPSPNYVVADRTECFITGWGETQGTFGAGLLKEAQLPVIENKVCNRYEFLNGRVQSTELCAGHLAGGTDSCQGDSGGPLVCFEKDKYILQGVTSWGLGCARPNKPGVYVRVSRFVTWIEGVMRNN
Put plainly: SPR; Ixonnexin amine-coupled to a carboxymethylated dextran (CM5) chip, 726.2 RU; analytes injected 120 s at 30 µL/min, 25 °C, dissociation 600 s; global fit with the two-state (conformational change) model, Langmuir 1:1 for plasmin. The conditions noted are these: both partners purified. Background: Surface plasmon resonance follows binding to a sensor surface in real time, without labels.

Factor Xa, sequence (P00742 32-488): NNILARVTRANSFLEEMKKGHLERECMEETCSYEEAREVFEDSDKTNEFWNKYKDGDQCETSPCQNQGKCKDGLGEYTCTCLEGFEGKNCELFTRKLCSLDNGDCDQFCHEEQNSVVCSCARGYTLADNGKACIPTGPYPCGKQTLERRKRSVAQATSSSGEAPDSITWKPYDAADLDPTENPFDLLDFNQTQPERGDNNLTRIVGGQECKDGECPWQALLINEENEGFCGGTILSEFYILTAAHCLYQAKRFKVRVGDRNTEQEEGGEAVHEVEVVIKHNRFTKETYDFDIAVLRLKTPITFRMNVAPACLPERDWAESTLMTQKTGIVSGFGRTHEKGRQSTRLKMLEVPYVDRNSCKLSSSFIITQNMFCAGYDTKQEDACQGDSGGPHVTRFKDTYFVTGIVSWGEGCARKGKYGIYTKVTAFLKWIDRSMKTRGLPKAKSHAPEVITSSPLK

B1: Ixonnexin (natural protein)
chain: HNCQNGTRPASEENREGCDYYCWNAETKSWDQFFFGNGERCFYNTGEKGTCLNGECHLTTSSGGPDDTGDNTPPPTEKPKQKKKKPKKTKKPKRKSKKDQKENF
notes: Ixonnexin, 'Basic-tail' family salivary protein of Ixodes scapularis (gi 67083505); the precursor has a signal peptide of 21 residues (cut between Ala21 and His22); the mature protein of 104 residues was synthesized; numbers count on: the mature protein; 3 disulfide bonds after folding; Gel filtration is consistent with a non-covalent dimer; mass spectrometry gave a single monomeric mass; also …
For orientation: stoichiometry N means a count of units in the complex or per binding partner. What is called Kd is the constant that tells how readily two partners part at equilibrium. Read a low Kd as higher affinity. On to B1, for which the “stoichiometry N” value in data set [1] was 2. The “amidolytic activity of FXa (0.33 nM) on a fluorogenic substrate, enhanced by Ixonnexin: IC50” value in the data set with Factor Xa is 9.73 nM. In the data set with Lys-plasminogen, this molecule had a Kd of 14.4 nM.
